Measurements reported in the nanobody polyreactivity screen of Harvey et al. (2022).

assay: yeast display, Sf9 membrane polyspecificity reagent, FACS + sequencing; frameworks hold sequencing errors
Procedure, shortened: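 Galactose induction of a Saccharomyces cerevisiae BJ5465 synthetic nanobody display library ran 36–48 hours. The cells were then stained for 1 hour at 4 °C with 10% biotinylated, detergent-solubilized Sf9 membrane reagent, pulled down on streptavidin microbeads and FACS-sorted into low and high (top ~1%) gates on expression and reagent-binding fluorescence. Labels for polyreactivity follow the gate of origin.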

Row | Sequence | polyreactivity (PSR sort gate)
1 | QVQLVESGGGLVQAGGSLRLSCAASGRIFFYYVMGWYRQAPGKERELVAAITRSGGSTYYADSVKGRFTISRDNAKNTVYLQMNSLKPEDTAVYYCAVGDGFEYDWGQGTQVTVSS | low polyreactivity
2 | QVQLVESGGGLVQAGGSLRLSCAASGRIFGANAMGWSRQAPGKERELVATITYVGTSTYYADSVKGRFTISRDNAKNTVYLQMNSLKPEDTAVYYCAADGYSVFAAILGEYFDYDYWGQGSQVTVSS | low polyreactivity
3 | QVQLVESGGGLVQAGGSLRLSCAASGRIFGAYAMGWYRPAPGKERELVAAITGGDSTYYADSVKGRFTISRDNAKNTVYLQMNSLKPEDTAVYYCAADLTPEGVLQLGKYINYDSWGQGTQVTVSS | low polyreactivity
4 | QVQLVESGGGLVQAGGSLRLSCAASGRIFGAYAMGWYRQAPGKERELVAAIDIRGGNTYYADSVKGRFTISRDNAKNTVYLQMNSLKPEDTAVYYCAADTWYDAYNYWGQGTQVNVSS | low polyreactivity
5 | QVQLVESGGGLVQAGGSLRLSCAASGRIFGDNAMGWYRQAPGKERELVADITSSGGSTHYADSVKGRFTISRDNAKNNVYLQLNSLKPEDTEVYYCNADDYVYFDDGDYWGQGTQVTVSS | low polyreactivity
6 | QVQLVESGGGLVQAGGSLRLSCAASGRIFGEYAMGWYSQAPGKERELVASISSGGNTNYADSVKGRFTISRDNAKNTFYLQMNSLKPEDTAVYYCAADDYATPQKMDYWGQGTQVTVSS | high polyreactivity
7 | QVQLVESGGGLVQAGGSLRLSCAASGRIFGFYALGWYRQAAGKEWELVAAISQSRGSTYYADSVKGRFTISRDTANNTVYLQMNSLKPEDTAVYYCAKGYKYGKNIYYYWGQGTQVTVSS | high polyreactivity
8 | QVQLVESGGGLVQAGGSLRLSCAASGRIFGFYAMGWYRQAPGKERELVARISSRGGSTYYADSVKGRFTISRDNAKNTVYLQMNSLKPEDTAVYYCAAYVWYHQYHYVPMDYWGQGTQVTVSS | high polyreactivity
9 | QVQLVESGGGLVQAGGSLRLSCAASGRIFGFYAMGWYRQAPGKERELVARITLSGGRTYYADSVKGRFTISRDNAKNTVYLQMNSLKPEDTEVYYCAADSIGRLWGYGYWGQGTQVTVSS | high polyreactivity
10 | QVQLVESGGGLVQAGGSLRLSCAASGRIFGGNAMGWYRQAPGKERELVAAITSGGGSTSYADSVKGRFTISRDNAKNTVYLQMNSLKPEDTAVYYCAAPATYGPFVIDTVYPRDGYWGQGTQVTVSS | low polyreactivity
11 | QVQLVESGGGLVQAGGSLRLSCAASGRIFGGYAMGGYRQAPGKERELVAAISSRGTRTYYADSVKGRITISRDNAKNTVYLQMNSLKPEDTAVYYCATAYRGFHYSPLRELDYWGQGTQVTVSS | high polyreactivity
12 | QVQLVESGGGLVQAGGSLRLSCAASGRIFGGYAMGWYRPAPGKERELVAAISGGGSTNYADSVKGRFTISRDNAKNTVYLQMNSLKPEDTAVYYCAAQYWSRRFYWYGYWGQGTQVTVSS | high polyreactivity
13 | QVQLVESGGGLVQAGGSLRLSCAASGRIFGGYAMGWYRQAPGKERELVAAISARGGSTYYADSVKGRFTISRDNAKNTVYLQMNSLKPEDTAVYYCAAAEASSRGYYDYDYWGQGTQVTVSS | low polyreactivity
14 | QVQLVESGGGLVQAGGSLRLSCAASGRIFGGYAMGWYRQAPGKERELVAAISNGGRTNYADSVKGRFTISRDNAKNTVYLQMISLKPEDTAVYYCAARNYKPYGYYRIYDSWGQGTQVTVSS | high polyreactivity
15 | QVQLVESGGGLVQAGGSLRLSCAASGRIFGGYAMGWYRQAPGKERELVAAITFRSGTTYYADSVKGRFTISRDNAKNTVYLQMNSLKPEDTAVYYCAARWGPYAFTYVRTYDYWGQGTQVTVSS | low polyreactivity
16 | QVQLVESGGGLVQAGGSLRLSCAASGRIFGGYAMGWYRQAPGKERELVAAITQSGGSTYYADSVKGRFTISRDNAKNTVYLQMNSLKPEDTAVYYCATYAWYIFGYWGQGTQVTVSS | low polyreactivity

Row | Sequence | polyreactivity (PSR sort gate)
17 | QVQLVESGGGLVQAGGSLRLSCAASGRIFGGYAMGWYRQAPGKERELVAVITDGGSTNYADSVKRRFTISRDNAKNTVYLQMNSLKPEDTAVYYCAADSDGDEPPYDYWGQGTQVTVSS | low polyreactivity
18 | QVQLVESGGGLVQAGGSLRLSCAASGRIFGGYVMGWYRQAPGKERELVAAISKRGDSTYYADSVKGRFTISRDNAKHTVYLQMNSLKPEDTAVYYCAAVRRGDRGTDMDYWGQGTQVTVSS | high polyreactivity
19 | QVQLVESGGGLVQAGGSLRLSCAASGRIFGHNAMGWYRQAPGKERELVARISSTGSTKYADSVKGRFTISRDNAKNTVYFQMNSLKPEDTAVYYCAAVDRLRSIRYDYWGQGTQVTVSS | high polyreactivity
20 | QVQLVESGGGLVQAGGSLRLSCAASGRIFGHYVMGWYRQAPGKERELVAAITWRGGSTYYADSVKGRFTISRDNAKNTVYLQMNSLKPEDTAVYYCNRALPGYGLRRDYWGQATQVTVSS | high polyreactivity
21 | QVQLVESGGGLVQAGGSLRLSCAASGRIFGINGMGWYRQAPGKERELVAAITWIGGRTYYADSVKGRFTISRDNAKNTVYLQMNSLKPEDTAVYYCNAVYTQRFATYRRYDYWGQGTQVTVSS | high polyreactivity
22 | QVQLVESGGGLVQAGGSLRLSCAASGRIFGIYAMGWFRLAPWKERELVARITGGGSTNYADSLKGRFTISRDNAKNTVYFQMTSLKPEDTAVYYCNTKKLPYAEGYWGQGTQVTVSS | low polyreactivity
23 | QVQLVESGGGLVQAGGSLRLSCAASGRIFGIYAMGWYRHAPGKERELVATITWSGGSTYYADSVKGRFTISRDNAKNTVYLQMNSLKPEDTAVYYCAAYYRQFFGWYDYWGQGTQVTVSS | high polyreactivity
24 | QVQLVESGGGLVQAGGSLRLSCAASGRIFGIYAMGWYRQAPGKERELVASITDGTITNYADSVKGRFTISRDNAKNTVYLQMNSLKPVDTAVYYCAAGTQAHAYVVRPIEMDYWGQGTQVTVSS | low polyreactivity
25 | QVQLVESGGGLVQAGGSLRLSCAASGRIFGIYAMGWYRQAPGKERELVASITGSSGSTNYADSVKGRFTISRDNAKNTVYLQMNSLKPDDTAVYYCAADIPSYYWWRAYDYWGQGTQVTVSS | low polyreactivity
26 | QVQLVESGGGLVQAGGSLRLSCAASGRIFGIYAMGWYRQAPGKERELVSRITGGGSTNYADSVKGRFTISRDNAKNTVYLQMNSLKPEDTAVYYCAADSYLSVYDPYGYWGQGTQVTVSS | low polyreactivity
27 | QVQLVESGGGLVQAGGSLRLSCAASGRIFGIYAMGWYRQAPGKERVLVAAISRSGGSTYYADSVKGRFTISRDNAKNTVYLQMNSLKPEDTAVYYCAADSRSWTGYYYWGQGTQVTVSS | high polyreactivity
28 | QVQLVESGGGLVQAGGSLRLSCAASGRIFGIYAMGWYRQAPGKESEFVAAISWRTGSTYYADSVKWRFTISRDNAKNTVYLQMNRLNPADTAVYYCAAESASKYGYWVQGTQVTVSS | high polyreactivity
29 | QVQLVESGGGLVQAGGSLRLSCAASGRIFGIYAMGWYRQAPRKERELVASITDGTITNYADSVKGRFTISRDNAKNTVYLQMNSLKPEDTAVYYCAAGTQAHAYVVRPIEMDYWGQGTQVTVSS | low polyreactivity
30 | QVQLVESGGGLVQAGGSLRLSCAASGRIFGIYTMGWYRQAPGKERELVAAISRSGGSTYYADSVKGRFTISRDNAKNTVYLQMNSLKPEDTAVYYCAAVPYRFPGYGFDSWGQGTQVTVSS | high polyreactivity
31 | QVQLVESGGGLVQAGGSLRLSCAASGRIFGKNAMGWYRQAPGKERELVAAITGSGGNTYYADSVKGRFTISRDNAKNTVYLQMNSLKPEDTAVYYCNTSPRFRRYPDYDYWGQGTQVTVSS | high polyreactivity
